T1: human B-cell maturation antigen (BCMA) on cells (human, UniProt Q02223 1-184)
T1 construct: Recombinant on HEK293 or K562 cells, or endogenous on cell lines (H929, RPMI 8226, OPM2, MM1S, Daudi); also called hBCMA; huBCMA
T1 chain: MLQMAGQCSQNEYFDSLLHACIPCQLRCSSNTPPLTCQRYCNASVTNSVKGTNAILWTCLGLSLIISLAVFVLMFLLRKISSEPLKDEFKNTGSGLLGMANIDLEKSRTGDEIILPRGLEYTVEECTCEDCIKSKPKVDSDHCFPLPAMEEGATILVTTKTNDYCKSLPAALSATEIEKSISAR

B1: BCMA-38 scFv (scFv)
scFv: QVQLVQSGGGLVKPGGSLRLSCAASGFTFSDYYMSWIRQAPGKGLEWVSYISSSGSTIYYADSVKGRFTISRDNAKNSLYLQMNSLRAEDTAVYYCARVDGDYVDDYWGQGTLVTVSSGGGGSGGGGSGGGGSQAVLTQEPSLTVSPGGTVTLTCGSSTGAVTNGHSPYWFQQKPGQAPRTLIYDTNNRHSWTPARFSGSLLGGKAALTLSGAQPEDEADYFCLLSYSDARLAFGGGTKLTVL
B2: BCMA-35 scFv (scFv)
scFv: EVQLVQSGGGLVKPGGSLRLSCAASGFTFSDYYMSWIRQAPGKGLEWVSYISSSGSTIYYADSVKGRFTISRDNAKNSLYLQMNSLRAEDTAVYYCARVDGDYDDYWGQGTLVTVSSGGGGSGGGGSGGGGSNFMLTQPPSVSVAPGQTARITCGANNIGSKSVHWYQQKPGQAPMLVVYDDDDRPSGIPERFSGSNSGNTATLTISGVEAGDEADYFCHLWDRSRDHYVFGTGTKLDIK
B3: BCMA-41 scFv (scFv)
scFv: QVQLVQSGGGLVKPGGSLRLSCAASGFTFSDYYMSWIRQAPGKGLEWVSYISSSGNTIYYADSVKGRFTISRDNAKNSLYLQMNSLRAEDTAVYYCAKVDGDYVDDYWGQGTLVTVSSGGGGSGGGGSGGGGSQPVLTQPPSVSGTPGQRVTIPCSGSSSNIGGNSVDWFQEVPGTAPKLLIYANDRRPSGVPDRFSGTKSGTSASLAIRGLQSDDDAHYYCESWDDALNGHVFGGGTKLTVL
B4: BCMA-36 scFv (scFv)
scFv: QVQLVQSGGGLVKPGGSLRLSCAASGFTFSDYYMSWIRQAPGKGLEWVSYISSSGSTIYYADSVKGRFTISRDNAKNSLYLQMNSLRAEDTAVYYCARVDGDYVDDYWGQGTLVTVSSGGGGSGGGGSGGGGSQSVLTQEPSLTVSPGETVTLTCGSSTGPVTSAHSPSWFQKKPGQAPTTLIYETTNRHSWTPARFSGSLLGGKAALTLSGAQPEDEADYYCLLSSGDARMVFGGGTKLTVL
B5: BCMA-45 scFv (scFv)
scFv: QVQLVQSGGGLVQPGRSLRLSCTASGFTFGDYAMSWFRQAPGKGLEWVGFIRSKAYGGTTEYAASVKGRFTISRDDSKSIAYLQMNSLKTEDTAVYYCAAWSAPTDYWGQGTLVTVSSGGGGSGGGGSGGGGSAIRMTQSPSSLSASVGDRVTITCRASQGIGRSLAWYKQKPGGVPQLLIHDASSLRSGVPSRFSGSGSGTEFTLTISGVQSEDSATYHCQQLNGYPWTFGQGTKVDIK
B6: BCMA-42 scFv (scFv)
scFv: EVQLLESGGGLVQPGRSLRLSCTASGFTFGDYAMSWFRQAPGKGLEWVGFIRSKAYGGTTEYAASVKGRFTISRDDSKSIAYLQMNSLKTEDTAVYYCAAWSAPTDYWGQGTLVTVSSGGGGSGGGGSGGGGSDIQMTQSPSLVSASVGDRVTITCRASQGIGNGLAWYQQKPGKAPKLLLFAASRLESGVPSRFSGSRSGTDYTLTISSLQPEDVATYYCQQYVEDALTFGGGTKVDIK
B7: BCMA-37 scFv (scFv)
scFv: EVQLVQSGGGLVKPGGSLRLSCAASGFTFSDYYMSWIRQAPGKGLEWVSYISSSGSTIYYADSVKGRFTISRDNAKSSLYLQMNSLRAEDTAVYYCARVDGDYVDDYWGQGTLVTVSSGGGGSGGGGSGGGGSQLVLTQEPSLTVSPGGTVTLTCGSSTGAVTNGHSPYWFQQKPGQAPRTLIYDTTNRHSWTPARFSGSLLGGKAALTLSGAQPEDEAEYYCSLSHAGDRVFFGGGTKLTVL
B8: BCMA-34 scFv (scFv)
scFv: TGQLVQSGGGLVQPGRSLRLSCAASGFTFDDYAMHWVRQAPGKGLEWVSGISWNSGSIGYADSVKGRFTISRDNAKNSLYLQMNSLRAEDTAVYYCARDLGPDYDPDAFDIWGQGTMVTVSSGGGGSGGGGSGGGGSEIVMTQSPATLSLSPGDRATLSCRASQSISNYLAWYQQKPGQAPRLLIYDASNRATGIPARFSGSGSGTDFTLTISSLEPEDFAVYYCQQRSNWPPYTFGQGTKLDIK

In the assay the target is T1, human B-cell maturation antigen (BCMA) …. As to the kind of experiment: flow cytometry on BCMA-expressing HEK293 cells vs control cells, crude lysate or bacterial supernatant; clone listed in Table E2. How it is done:
Specific binding of resulting scFv clones to BCMA-expressing HEK293 cells, as compared to control cells not expressing BCMA, was assessed by flow cytometry either with in vitro translated crude cell lysate or with bacterially-produced supernatant.
In general terms: Flow cytometry measures light scatter and fluorescence of single cells or particles in a stream.
With B1, the binding result is recorded as “binds”.
As for B2, the binding result was “binds”.
The result for B3 reads “binds”; that for B4, “binds”; that for B5, “binds”.
With B6, the binding result was “binds”.
The result for B7 reads “binds”.
With B8, the binding result was “binds”.

Values taken from patent US20260109774A1 (JUNO THERAPEUTICS, published 2026).
